# Reference: patent US20040029178A1, “Novel g protein-coupled receptor proteins and dnas thereof” (priority 2000, published 2004)
# Ends that are not written are not given here. * marks the point of attachment. 125I = [125I]*
# T1: TGR26 (Rattus norvegicus, UniProt Q56UD9)
# T1 construct: expressed in transfected cells; whole cells in A1, membrane fraction in A2 and A3
# T1 sequence (Q56UD9 1-329): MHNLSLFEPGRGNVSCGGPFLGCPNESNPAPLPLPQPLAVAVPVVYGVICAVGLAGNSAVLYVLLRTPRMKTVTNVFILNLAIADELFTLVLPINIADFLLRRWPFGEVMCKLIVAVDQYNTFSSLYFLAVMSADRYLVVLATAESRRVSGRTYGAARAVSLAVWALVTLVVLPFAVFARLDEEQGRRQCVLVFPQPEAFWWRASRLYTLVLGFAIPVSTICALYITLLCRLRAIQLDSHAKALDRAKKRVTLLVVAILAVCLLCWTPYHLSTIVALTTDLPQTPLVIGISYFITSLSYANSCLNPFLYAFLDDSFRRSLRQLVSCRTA
# T2: TGR26, the rat-derived novel G protein-coupled receptor protein (rat, UniProt Q56UD9 1-329)
# T2 construct: Expressed in CHO dhfr- cells from pAK-rGPR7; also called rat TGR26; TGR26 receptor
# T2 sequence: T1 sequence (Q56UD9 1-329)
# B1: human homologue of GPR8 ligand peptide consisting of 23 residues, hGPR8L (1-23) (peptide)
# peptide: WYKHVASPRYHTVGRAAGLLMGL-OH
# notes: also called human GPR8 ligand (1-23)
# B2: [^125I-Tyr^10]-hGPR8L (1-23) (peptide)
# peptide: WYKHVASPRY(125I)HTVGRAAGLLMGL-OH
# Key:
# [1] = molecular target: T1, TGR26; assay: GTPγS binding activity using a membrane fraction of TGR26 expressing CHO cells; assay type: biochemical; conditions: various concentrations
# Method: Promoting activity for [^35S]-guanosine 5′-(γ-thio) triphosphate (GTPγS) binding to a membrane fraction of TGR26 expressing cells was assayed in accordance with the following method.
# To 1×10^8 of TGR26 expressing CHO cells, 10 ml of homogenating buffer (10 mM NaHCO3, 5 mM EDTA, 0.5 mM PMSF (phenylmethylsulfonyl fluoride), 1 μg/ml Pepstatin, 4 μg/ml E-64, 20 μg/ml Leupeptin) was added, and the cells were disrupted using Polytron (12,000 rpm, 1 minute). Supernatant was obtained from the disrupted cell suspension by centrifugation (1,000 g, 15 minutes). In addition, the supernatant was ultracentrifuged (Beckman Type 30 rotor, 30,000 rpm, 1 hour), and precipitate obtained was kept as a membrane fraction of TGR26 expressing CHO cells.
# The membrane fraction of TGR26 expressing CHO cells was diluted with membrane dilution buffer (50 mM Tris HCl buffer (pH 7.4), 5 mM MgCl2, 150 mM NaCl, 1 μM GDP, 0.1% BSA) to prepare a cell membrane fraction solution for assay at 30 μg/ml of protein concentration. To 200 μl of membrane fraction solution for assay, 2 μl of 50 nM [^35S]-guanosine 5′-(γ-thio) triphosphate (NEN) and 2 μl of sample/DMSO solution having an appropriate concentration were added. Then the mixture was incubated at 25° C. for one hour. The mixture was filtrated, and further the filter was washed twice with 1.5 ml of washing buffer (50 mM Tris HCl buffer (pH 7.4), 5 mM MgCl2, 1 mM EDTA, 0.1% BSA). Finally, a radioactivity on the filter was determined by liquid scintillation counter.
# Various concentration of hGPR8L (1-23) or hGPR8L (1-30) was mixed with a membrane fraction of the TGR26 expressing cell in accordance with the method described in Example 6, and a promoting activity of GTPγS binding was assayed.
# [2] = molecular target: T1, TGR26; assay: Inhibition of intracellular cAMP production using TGR26 expressing CHO cells; assay type: cell-based; conditions: 2 μM forskolin, various concentrations
# Method: TGR26 expressing CHO cells prepared in Example 3 were seeded on 24-well plate at 5×10^4 cells/well and cultivated for 48 hours. The cells were washed with MEMα buffer (pH 7.4) containing 0.2 mM 3-isobutyl-methylxanthine, 0.05% BSA (bovine serum albumine) and 20 mM HEPES [hereafter, MEMα buffer (pH 7.4) containing 0.2 mM 3-isobutyl-methylxanthine, 0.05% BSA (bovine serum albumine) and 20 mM HEPES may be referred to as reaction buffer]. Then, 0.5 ml of the reaction buffer was added to the cells and the suspension was incubated for 30 minutes in the incubator. After removal of the reaction buffer and newly adding 0.25 ml of the reaction buffer to the cells, an appropriate concentration of sample in DMSO solution and 0.25 ml of the reaction buffer containing 2 μM forskolin were added to the cells and the mixture was reacted at 37° C. for 30 minutes. For termination of the reaction, 100 μl of 20% perchloric acid was added. Subsequently, the mixture was stood on ice for an hour to extract intracellular cAMP. The cAMP level in the extract was measured using the cAMP EIA Kit (Amersham Pharmacia Biotech).
# The human homologue of GPR8 ligand peptide consisting of 23 residues represented by […], which was obtained in Reference Example 12 (hereafter, sometimes referred to as hGPR8L (1-23)), or the human homologue of GPR8 ligand peptide consisting of 30 residues represented by […], which was obtained in Reference Example 13 (hereafter, sometimes referred to as hGPR8L (1-30)) was administered at various concentrations to […] TGR26 expressing CHO cells by the method described in Example 4, and an inhibiting activity of intracellular cAMP production was measured.
# In the figure, when an amount subtracted intracellular cAMP level with the reaction buffer from intracellular cAMP level with the reaction buffer containing forskolin is indicated as 100%, the inhibiting activity of cAMP synthesis is indicated as an amount subtracted intracellular cAMP level with hGPR8L (1-23) or hGPR8L (1-30) from intracellular cAMP level with the reaction buffer by representation of percentage (%).
# [3] = molecular target: T1, TGR26; assay: Receptor binding using [125I-Tyr10]-hGPR8L (1-23) and membrane fraction of TGR26 expressing CHO cells; conditions: membrane fraction of TGR26 expressing cells; in words
# Method: Using [^125I-Tyr^10]-hGPR8L (1-23) prepared by the method described in Reference Example 15 and a cell membrane fraction prepared from TGR26 expressing cells as described in Example 6, a receptor binding assay was carried out as follows.
# (§1) Cell membrane fraction prepared from TGR26 expressing cells was diluted to various concentration with assay buffer (25 mM Tris-HCl, 5 mM EDTA, 0.05% CHAPS (3-[(3-Cholamidopropyl) Dimethyl-Ammonio]-1-Propanesulfonate), 0.1% BSA, 0.5 mM PMSF, 1 μg/ml Pepstatin, 20 μg/ml Leupeptin, 4 μg/ml E-64, pH 7.4), and 200 μl each of the diluent was dispensed into polypropilene test tube (Falcon 2053). In order to determine an amount of maximum binding, 2 μl of DMSO and 2 μl of 7 nM [^125I-Tyr^10]-hGPR8L (1-23) were added to the membrane fraction solution. Further, in order to determine a non-specific binding, 2 μl of 100 μM hGPR8L (1-23)/DMSO solution and 2 μl of 7 nM [^125I-Tyr^10]-hGPR8L (1-23) were added to the membrane fraction solution. The reaction was done at 25° C. for 75 minutes, and the reaction mixture was filtered by suction filtration using Whatman glassfilter (GF-F) treated with polyethyleneimine. In addition, the filter was washed twice with 1.5 ml of washing buffer (25 mM Tris-HCl, 5 mM EDTA, 0.05% CHAPS, 0.1% BSA, pH 7.4). After filtration, a radioactivity remaining on the filter was counted using γ-counter, and an amount of specific binding was estimated by subtracting an amount of non-specific binding from an amount of maximum binding.
# Where the concentration of membrane fraction was set to 3 μg/ml, an inhibition for the specific binding of [125I-Tyr^10]-hGPR8L (1-23) to the membrane fraction of TGR26 expressing cells by hGPR8L (1-23) and hGPR8L (1-30) was investigated.
# A receptor binding activity of human- and porcine-homologue derivatives of GPR8 ligand peptide obtained in the reference examples was measured using a membrane fraction of TGR26 expressing CHO cells and [^125I-Tyr^10]-hGPR8L (1-23) by the method described in Example 8. The receptor binding activity is represented by concentration of 50% inhibition for binding (IC50 value).
# [4] = molecular target: T2, TGR26, the rat-derived novel G …; assay: competition with [125I-Tyr10]-hGPR8L (1-23) for membrane fraction of TGR26 expressing CHO cells
# Method: (§2) Using [¹²⁵I-Tyr¹⁰]-hGPR8L (1-23) prepared by the method described in Reference Example 15 and a cell membrane fraction prepared from TGR26 expressing cells as described in Example 6, a receptor binding assay was carried out as follows.
# as §1, with “[¹²⁵I-Tyr¹⁰]-hGPR8L” for “[^125I-Tyr^10]-hGPR8L”, “In addition, the filter was washed twice with 1.5 ml of washing buffer (25 mM Tris-HCl, 5 mM EDTA, 0.05% CHAPS, 0.1% BSA, pH 7.4).” left out, “binding. […]” for “binding.”
# [5] = molecular target: T2, TGR26, the rat-derived novel G …; assay: radioligand binding to membrane fraction of TGR26 expressing CHO cells, filtration, gamma counting
# Method: as §2
# as §1, with “[¹²⁵I-Tyr¹⁰]-hGPR8L” for “[^125I-Tyr^10]-hGPR8L”, “In addition, the filter was washed twice with 1.5 ml of washing buffer (25 mM Tris-HCl, 5 mM EDTA, 0.05% CHAPS, 0.1% BSA, pH 7.4).” left out, “binding. […]” for “binding.”
Molecule,promoting activity of GTPγS binding [1],inhibiting activity of intracellular cAMP production [2],inhibition for the specific binding of [125I-Tyr10]-hGPR8L (1-23) [3],IC50 [4] [nM],binding result [5]
"CSCC[C@H](NC(=O)[C@H](CC(C)C)NC(=O)[C@H](CC(C)C)NC(=O)CNC(=O)[C@H](C)NC(=O)[C@H](C)NC(=O)[C@H](CCCNC(=N)N)NC(=O)CNC(=O)[C@@H](NC(=O)[C@@H](NC(=O)[C@H](Cc1c[nH]cn1)NC(=O)[C@H](Cc1ccc(O)cc1)NC(=O)[C@H](CCCNC(=N)N)NC(=O)[C@@H]1CCCN1C(=O)[C@H](CO)NC(=O)[C@H](C)NC(=O)[C@@H](NC(=O)[C@H](Cc1c[nH]cn1)NC(=O)[C@H](CCCCN)NC(=O)[C@H](Cc1ccc(O)cc1)NC(=O)[C@@H](N)Cc1c[nH]c2ccccc12)[C@@H](C)O)[C@@H](C)O)C(C)C)C(=O)NCC(=O)N[C@@H](CC(C)C)C(=O)O [pGPR8L (1-23), Trp-Tyr-Lys-His-Val-Ala-Ser -Pro-Arg-Tyr-His-Thr-Val-Gly-Arg-Ala-Ala-Gly-Leu-Leu-Met-Gly-Leu]",GTPγS binding of the TGR26 expressing CHO cells was promoted depending on the concentration,intracellular cAMP production of the TGR26 expressing CHO cells was inhibited depending on the concentration,–,–,–
"SEQ ID NO: 57: porcine homologue of hGPR8L (1-30), ligand peptide to GPR8 deduced from SEQ ID NO: 55 (WYKHTASPRYHTVGRAAGLLMGLRRSPYMW; Porcine)",GTPγS binding of the TGR26 expressing CHO cells was promoted depending on the concentration,intracellular cAMP production of the TGR26 expressing CHO cells was inhibited depending on the concentration,can also be confirmed,–,–
"SEQ ID NO: 74: rat homologue of hGPR8L (1-30), ligand peptide to GPR8 deduced from SEQ ID NO: 72 (WYKHVASPRYHTVGRASGLLMGLRRSPYLW; Rat)",GTPγS binding of the TGR26 expressing CHO cells was promoted depending on the concentration,intracellular cAMP production of the TGR26 expressing CHO cells was inhibited depending on the concentration,can also be confirmed,–,–
"SEQ ID NO: 92: mouse homologue of hGPR8L (1-30), ligand peptide to GPR8 deduced from SEQ ID NO: 90 (WYKHVASPRYHTVGRASGLLMGLRRSPYQW; Mouse)",GTPγS binding of the TGR26 expressing CHO cells was promoted depending on the concentration,intracellular cAMP production of the TGR26 expressing CHO cells was inhibited depending on the concentration,can also be confirmed,–,–
Trp-Tyr-Lys-His-Val-Ala-Ser -Pro-Arg-Tyr-His-Thr-Val-Gly-Arg-Ala-Ala-Gly-Leu-Leu-Met-Gly-Leu [SEQ ID NO: 73],GTPγS binding of the TGR26 expressing CHO cells was promoted depending on the concentration,intracellular cAMP production of the TGR26 expressing CHO cells was inhibited depending on the concentration,can also be confirmed,–,–
B1,–,–,–,0.12,–
B2,–,–,–,–,binds
